From US9863962, “Aptamers and sensing technology used for detection of glycated hemoglobin in whole blood” (Alfaisal University) come the findings set out here.

Data set [1] concerns the target T1, glycated hemoglobin HbA1c (UniProt P69905;P68871 P69905:2-142,P68871:2-147). Description: electrochemical impedance on HbA1C-gold electrode; 50 mM Tris pH 7.5, 150 mM NaCl, 2 mM MgCl2. The settings on record: tags: none; purified HbA1C from Monojo (Amman, Jordan); immobilized on cysteamine/PDITC gold electrode; chain copies: 2. As to the method:
(§1) Binding analysis of the aptamer sequences to Hb and HbA1C: In order to test the binding affinity of the aptamer sequences to their protein targets, some representative sequences were synthesized after eliminating the primers sequence. A solution of 25 nM from each aptamer sequence in binding buffer was incubated with the Hb and HbA1C-modified electrodes (described in section 2.3.4) for 30 min. The electrodes were then washed with binding buffer and impedance measurements were recorded in 5 mM [Fe(CN)_6]^{3-/4-} redox couple. The binding was then evaluated by calculating the % $RCT$ change)((R−R°/R°%).
(§2) A significant change in the $Rct$ after the incubation of most of the tested aptamers with the HbA1C electrodes while no response was obtained with scrambled DNA sequence (control DNA) indicating specific binding of the aptamers to HbA1C. […] The highest change in EIS signal was obtained for aptamers G11, G23, G18, G20, G15, therefore these aptamers were subjected to further analysis to assess their binding affinity. The dissociation constants were determined by incubating different concentrations of the aptamers with Hb and HbA1C-modified electrodes. […] The K_d were then calculated from the binding curve using non linear regression analysis. […] Four HbA1C-specific aptamers with high affinity and specificity were obtained (G11, G18, G20, G23). […]

Data set [2] concerns the target T2, bovine serum albumin (BSA) (Bos taurus, UniProt P02769 P02769:25-607). Description: impedance; no significant response. The settings on record: tags: none; Sigma.
Data set [3] deals with T2, bovine serum albumin (BSA). The data set can be described thus: square wave voltammetry; no response with BSA. Particulars: tags: none; Sigma. As to the method:
(§3) For the Hb and HbA1C detection and selectivity experiments, each aptamer-modified electrode on the aptasensor array chip was incubated for 30 min with specific concentrations of Hb and HbA1C standard solutions. The electrodes were then washed with 50 mM Tris-HCl buffer pH 7.4 and subjected to square wave voltammetry (SWV) measurements in 10 mM [Fe(CN)_6]^{3-/4-} redox couple in 0.1 M PBS buffer solution. The parameters used for the SWV measurements: amplitude 20 mV; interval time 0.04 s; step potential −5 mV; scan rate 125 mV s-1, and frequency 25 Hz. The cyclic voltammetry (CV) experiments were conducted at a scan rate of 100 mV/s.
(§4) Dose response of the aptasensors: The aptasensors voltammetric response toward tHb and HbA1C was measured in the concentration range of 100 pg/mL to 10 µg/mL. […] Three independent measurements were done for each data point in order to assess the reproducibility of the aptasensors array. […] The linear regression equation of the HbA1C aptasensor is (i°–i)/ i°%=45.0+14.6×log C [ng/ml], R=0.997, with a detection limit (LOD) of 0.2 ng/mL and for the tHb: (i°−i)/i°%=42.5+20.2×log C [ng/ml], R=0.98, with LOD=0.34 ng/ml. The LOD was calculated from 3(S_{y/x}/m), where S_{y/x} is the standard error of estimate and m is the slope of the calibration curve. […]

Data set [4] addresses T1, glycated hemoglobin HbA1c. Description: square wave voltammetry aptasensor on AuNP electrode; LOD 0.2 ng/mL. Particulars: tags: none; purified HbA1C from Monojo (Amman, Jordan); immobilized on cysteamine/PDITC gold electrode; chain copies: 2. As to the method:
as §3, §4

The target of data set [5] is T1, glycated hemoglobin HbA1c. Description: impedance; HbA1C-specific, Kd stated only as nanomolar range. Particulars: tags: none; purified HbA1C from Monojo (Amman, Jordan); immobilized on cysteamine/PDITC gold electrode; chain copies: 2. The method, then: as §1
A significant change in the $Rct$ after the incubation of most of the tested aptamers with the HbA1C electrodes while no response was obtained with scrambled DNA sequence (control DNA) indicating specific binding of the aptamers to HbA1C. […] The highest change in EIS signal was obtained for aptamers G11, G23, G18, G20, G15, therefore these aptamers were subjected to further analysis to assess their binding affinity. The dissociation constants were determined by incubating different concentrations of the aptamers with Hb and HbA1C-modified electrodes. […] The K_d were then calculated from the binding curve using non linear regression analysis. […] Four HbA1C-specific aptamers with high affinity and specificity were obtained (G11, G18, G20, G23). […] The aptamer sequences may be made in full or part of it may be used for binding studies. Thus, from our SELEX screening, an aptamer that bind to the tHb (G15) as well as specific aptamers to HbA1C (G20) were obtained.

For data set [6], the target named is T2, bovine serum albumin (BSA). The data set can be described thus: impedance; specificity control. The settings on record: tags: none; Sigma. As to the method: The binding specificity of the HbA1C aptamer (G20) was also confirmed by incubating the HbA1C modified electrode with different concentrations of non glycated Hb and BSA as control. No significant response was obtained for the non specific proteins which indicates excellent specificity of the selected aptamer (FIG. 3). Similarly, the specificity of the tHb aptamer (G15) was verified against BSA as control. The two aptamers, G15 and G20, were then applied for Hb and HbA1C detection a microarray platform.

Data set [7] deals with T3, hemoglobin (Hb, non-glycated / total Hb) (UniProt P69905;P68871 P69905:2-142,P68871:2-147). Description: electrochemical impedance on Hb-gold electrode; 50 mM Tris pH 7.5, 150 mM NaCl, 2 mM MgCl2. Particulars: tags: none; purified Hb from Monojo (Amman, Jordan); immobilized on cysteamine/PDITC gold electrode; chain copies: 2. The method, then:
as §1, §2

Data set [8] addresses T3, hemoglobin (Hb, non-glycated / total Hb). The data set can be described thus: square wave voltammetry aptasensor on AuNP electrode; LOD 0.34 ng/mL. The settings on record: tags: none; purified Hb from Monojo (Amman, Jordan); immobilized on cysteamine/PDITC gold electrode; chain copies: 2. The method, then: as §3, §4
Data set [9] concerns the target T1, glycated hemoglobin HbA1c. Description: impedance screen at 25 nM aptamer; lower signal than top five. The settings on record: tags: none; purified HbA1C from Monojo (Amman, Jordan); immobilized on cysteamine/PDITC gold electrode; chain copies: 2. As to the method:
as §1
Binding affinity analysis of the aptamers: Eight representative sequences were subjected to initial binding analysis. Initial screening of the aptamer sequences (G11, G23, G20, G18, G15, G10, G22, G4) was performed using EIS to confirm their successful binding to HbA1C (FIG. 2A).

T2 sequence (P02769 25-607, one chain of several): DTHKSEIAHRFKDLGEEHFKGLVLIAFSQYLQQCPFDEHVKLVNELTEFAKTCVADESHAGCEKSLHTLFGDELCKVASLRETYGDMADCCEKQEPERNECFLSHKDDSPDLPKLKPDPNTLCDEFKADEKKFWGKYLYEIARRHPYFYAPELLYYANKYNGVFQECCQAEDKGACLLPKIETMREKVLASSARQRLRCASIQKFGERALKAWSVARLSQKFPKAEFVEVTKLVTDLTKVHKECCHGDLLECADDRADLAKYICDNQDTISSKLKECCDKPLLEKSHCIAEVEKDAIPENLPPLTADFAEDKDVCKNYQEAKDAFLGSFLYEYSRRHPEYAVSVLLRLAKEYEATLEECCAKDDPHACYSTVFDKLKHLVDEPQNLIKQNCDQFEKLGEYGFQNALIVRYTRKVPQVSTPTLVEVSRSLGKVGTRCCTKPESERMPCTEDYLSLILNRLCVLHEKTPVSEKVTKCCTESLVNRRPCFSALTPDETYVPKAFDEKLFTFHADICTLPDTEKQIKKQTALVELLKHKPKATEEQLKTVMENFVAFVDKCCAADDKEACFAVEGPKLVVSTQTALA
T1 sequence (P69905 2-142, chain 1 of 2): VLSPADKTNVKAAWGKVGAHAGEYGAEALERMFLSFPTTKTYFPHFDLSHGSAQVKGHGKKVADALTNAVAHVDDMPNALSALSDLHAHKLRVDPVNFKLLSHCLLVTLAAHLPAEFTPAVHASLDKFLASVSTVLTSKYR
T1 sequence (P68871 2-147, chain 2 of 2): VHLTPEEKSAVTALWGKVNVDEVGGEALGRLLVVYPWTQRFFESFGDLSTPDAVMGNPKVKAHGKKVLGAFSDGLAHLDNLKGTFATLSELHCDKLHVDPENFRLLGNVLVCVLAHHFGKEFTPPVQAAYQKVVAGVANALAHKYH
T3 sequence (P69905 2-142, chain 1 of 2): as the sequence (P69905 2-142, chain 1 of 2) above
T3 sequence (P68871 2-147, chain 2 of 2): as the sequence (P68871 2-147, chain 2 of 2) above

B1: G20 (ssDNA)
DNA: GGGGACACAGCAACACACCCACCCACCAGCCCCAGCATCATGCCCATCCGTCGTGTGTG
As for B1, the Kd – broadly, the equilibrium constant for the complex coming apart – in data set [1] amounted to 2.8 nM. Moreover, the binding result in [2] is “no binding”.

B2: thiol-G20 (ssDNA)
DNA: B1 DNA
modifications: 5' HS-(CH2)6
Regarding B2, the binding result is on record as “no binding” in data set [3] and “binds” in [4].

B3: G18 (ssDNA)
DNA: GGCCACAGCAGCCAGTACACCCACCCACCAGCCCCGTCAACGACCTGAACCTGCCCTGTGTG
In the case of B3, the binding result in data set [5] is listed as “binds”.

B4: G15 (ssDNA)
DNA: ACGCACACCAGAGACAAGTAGCCCCCCAAACGCGGCCACGGAACGCAGCACCTCCATGGC
As for B4, the binding result in data set [6] is reported as “no binding”. Besides, the Kd in data set [1] was found to be 3.3 nM; in data set [7], 2.7 nM.

B5: thiol-G15 (ssDNA)
DNA: B4 DNA
modifications: 5' HS-(CH2)6
Turning to B5, the binding result in data set [3] is given as “no binding”; in data set [8], “binds”.

B6: G11 (ssDNA)
DNA: CGACACCAGCACACAGACCCGAGACACACGTCAGATCAACAGCGACCGTATCATTGGTTG
Regarding B6, the binding result in data set [5] is given as “binds”.

B7: G4 (ssDNA)
DNA: GGGCCGACGGGAGGGGGAGGGAGAGCAATACGAGGTGGGATGGCAGATTATGGGTGCACT
As to B7, in data set [9], the binding result is “binds”.

B8: G23 (ssDNA)
DNA: GGACACGGCAAAGGGGTATAGCCTACCGGACCGTGGACATGGAATTGTGTGCTGCGTGG
For the molecule B8, the binding result in data set [5] is on record as “binds”.
